T1: GRIP1_5, Q9Y3R0
T1 sequence (Q9Y3R0 568-668, limits assumed, looked up): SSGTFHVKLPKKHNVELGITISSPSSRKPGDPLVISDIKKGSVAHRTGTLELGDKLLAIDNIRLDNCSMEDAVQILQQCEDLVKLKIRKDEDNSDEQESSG

T2: SHANK1, Q9Y566
T2 sequence (Q9Y566 658-767, limits assumed, looked up): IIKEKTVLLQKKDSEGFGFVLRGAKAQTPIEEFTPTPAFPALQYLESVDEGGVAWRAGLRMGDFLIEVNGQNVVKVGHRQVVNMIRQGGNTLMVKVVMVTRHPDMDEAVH

T3: TJP3_3, O95049
T3 sequence (O95049 375-456, limits assumed, looked up): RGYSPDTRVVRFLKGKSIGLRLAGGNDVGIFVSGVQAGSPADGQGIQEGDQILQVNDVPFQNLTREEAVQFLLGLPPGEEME

T4: NHERF3_1, Q5T2W1
T4 sequence (Q5T2W1 4-100, limits assumed, looked up): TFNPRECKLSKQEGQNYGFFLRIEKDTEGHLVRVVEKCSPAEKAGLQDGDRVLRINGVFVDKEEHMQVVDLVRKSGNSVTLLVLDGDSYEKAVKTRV

T5: DFNB31_3, Q9P202
T5 sequence (Q9P202 811-907, limits assumed, looked up): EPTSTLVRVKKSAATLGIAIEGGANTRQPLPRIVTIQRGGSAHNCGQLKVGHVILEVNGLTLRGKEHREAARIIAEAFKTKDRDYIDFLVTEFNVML

T6: NHERF3_3, Q5T2W1
T6 sequence (Q5T2W1 238-333, limits assumed, looked up): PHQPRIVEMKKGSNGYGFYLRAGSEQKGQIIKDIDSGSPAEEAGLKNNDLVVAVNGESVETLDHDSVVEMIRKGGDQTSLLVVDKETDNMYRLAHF

T7: LNX2_2, Q8N448
T7 sequence (Q8N448 334-432, limits assumed, looked up): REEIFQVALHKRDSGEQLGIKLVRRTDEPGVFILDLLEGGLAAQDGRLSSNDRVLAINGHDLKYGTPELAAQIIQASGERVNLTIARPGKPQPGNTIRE

T8: MPP2, Q14168
T8 sequence (Q14168 180-250, limits assumed, looked up): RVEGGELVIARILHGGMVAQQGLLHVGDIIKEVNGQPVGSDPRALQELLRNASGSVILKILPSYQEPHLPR

T9: TIAM2, Q8IVF5
T9 sequence (Q8IVF5 885-986, limits assumed, looked up): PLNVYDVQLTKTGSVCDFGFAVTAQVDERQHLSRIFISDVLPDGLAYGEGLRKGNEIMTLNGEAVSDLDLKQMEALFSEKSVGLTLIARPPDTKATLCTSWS

T10: PCLO, Q9Y6V0
T10 sequence (Q9Y6V0 4491-4600, limits assumed, looked up): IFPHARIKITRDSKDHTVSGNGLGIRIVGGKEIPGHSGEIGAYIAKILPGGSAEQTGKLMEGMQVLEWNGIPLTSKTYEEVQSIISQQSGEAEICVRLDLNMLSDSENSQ


Legend:
Test in all cases: holdup assay
Set-up in all cases: key: below the threshold = too weak to quantify, mostly under pKd 3.1 to 4
Settings in all cases: plain residues with an end cap or a label only (N-terminal biotin on a linker: ado-ado)
[1] = target: PTPN3, P26045
[2] = target: MAGI2_6, Q86UL8
[3] = target: T1, GRIP1_5, Q9Y3R0
[4] = target: DLG4_1, P78352
[5] = target: IL16_1, Q14005
[6] = target: Inadl_8, Q8NI35
[7] = target: T2, SHANK1, Q9Y566
[8] = target: NHERF4_1, Q86UT5-2
[9] = target: GORASP1, Q9BQQ3
[10] = target: GRID2IP_1, A4D2P6
[11] = target: T3, TJP3_3, O95049
[12] = target: Inadl_6, Q8NI35
[13] = target: TJP1_3, Q07157
[14] = target: T4, NHERF3_1, Q5T2W1
[15] = target: T5, DFNB31_3, Q9P202
[16] = target: T6, NHERF3_3, Q5T2W1
[17] = target: DLG4_2, P78352
[18] = target: PICK1, Q9NRD5
[19] = target: DLG2_2, Q15700
[20] = target: DLG5_1, Q8TDM6
[21] = target: T7, LNX2_2, Q8N448
[22] = target: T8, MPP2, Q14168
[23] = target: T9, TIAM2, Q8IVF5
[24] = target: MAGI2_2, Q86UL8
[25] = target: FRMPD2_3, Q68DX3
[26] = target: T10, PCLO, Q9Y6V0
[27] = target: NOS1, P29475
NOS1, P29475, sequence (P29475 9-101): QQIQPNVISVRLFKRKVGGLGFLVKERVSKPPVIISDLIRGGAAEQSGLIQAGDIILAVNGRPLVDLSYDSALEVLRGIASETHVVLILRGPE

IL16_1, Q14005, sequence (Q14005 210-306): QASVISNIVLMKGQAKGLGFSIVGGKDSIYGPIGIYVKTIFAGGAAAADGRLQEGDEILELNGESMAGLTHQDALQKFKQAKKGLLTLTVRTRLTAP
DLG4_1, P78352, sequence (P78352 62-152): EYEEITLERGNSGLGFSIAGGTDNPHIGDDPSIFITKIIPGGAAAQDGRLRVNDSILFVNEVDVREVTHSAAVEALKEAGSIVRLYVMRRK
DLG4_2, P78352, sequence (P78352 155-259): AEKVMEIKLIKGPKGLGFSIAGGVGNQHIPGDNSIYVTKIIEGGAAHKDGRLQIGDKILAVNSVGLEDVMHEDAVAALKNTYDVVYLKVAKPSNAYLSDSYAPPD
Inadl_6, Q8NI35, sequence (Q8NI35 1058-1167): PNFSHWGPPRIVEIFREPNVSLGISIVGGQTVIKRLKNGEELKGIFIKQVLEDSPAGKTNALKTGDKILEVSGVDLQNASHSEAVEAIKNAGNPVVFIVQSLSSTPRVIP
GORASP1, Q9BQQ3, sequence (Q9BQQ3 1-208): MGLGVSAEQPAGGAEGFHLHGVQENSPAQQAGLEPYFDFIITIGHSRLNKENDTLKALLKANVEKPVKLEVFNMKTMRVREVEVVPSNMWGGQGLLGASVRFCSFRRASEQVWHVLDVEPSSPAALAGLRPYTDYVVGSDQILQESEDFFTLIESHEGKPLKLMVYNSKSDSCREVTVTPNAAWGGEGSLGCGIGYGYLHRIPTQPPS
TJP1_3, Q07157, sequence (Q07157 416-512): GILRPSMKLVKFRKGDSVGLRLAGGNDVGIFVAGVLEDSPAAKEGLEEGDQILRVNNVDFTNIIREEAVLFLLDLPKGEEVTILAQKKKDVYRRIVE
Inadl_8, Q8NI35, sequence (Q8NI35 1425-1530): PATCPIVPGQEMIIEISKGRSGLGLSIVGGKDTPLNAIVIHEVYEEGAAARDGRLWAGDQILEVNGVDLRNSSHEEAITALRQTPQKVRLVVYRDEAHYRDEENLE
NHERF4_1, Q86UT5-2, sequence (Q86UT5 other isoform, or with tags, fused parts or gaps): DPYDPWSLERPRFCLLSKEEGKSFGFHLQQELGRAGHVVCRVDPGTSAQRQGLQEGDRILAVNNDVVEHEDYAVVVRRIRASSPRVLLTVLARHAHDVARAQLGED
PICK1, Q9NRD5, sequence (Q9NRD5 17-115): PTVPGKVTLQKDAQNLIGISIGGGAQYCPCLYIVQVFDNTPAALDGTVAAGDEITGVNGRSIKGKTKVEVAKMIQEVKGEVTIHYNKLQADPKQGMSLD
GRID2IP_1, A4D2P6, sequence (A4D2P6 1-87): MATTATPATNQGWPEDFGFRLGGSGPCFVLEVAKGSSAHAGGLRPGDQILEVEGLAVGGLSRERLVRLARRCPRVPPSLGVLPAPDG
FRMPD2_3, Q68DX3, sequence (Q68DX3 1073-1166): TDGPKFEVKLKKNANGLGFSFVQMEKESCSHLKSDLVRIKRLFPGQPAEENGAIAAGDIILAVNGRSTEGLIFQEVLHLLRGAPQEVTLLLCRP
PTPN3, P26045, sequence (P26045 505-587): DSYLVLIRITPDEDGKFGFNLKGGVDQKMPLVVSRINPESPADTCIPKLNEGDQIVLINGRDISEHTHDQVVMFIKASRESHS
DLG5_1, Q8TDM6, sequence (Q8TDM6 617-713): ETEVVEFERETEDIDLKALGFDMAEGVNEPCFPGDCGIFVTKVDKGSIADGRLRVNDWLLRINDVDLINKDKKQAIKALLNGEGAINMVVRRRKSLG
MAGI2_2, Q86UL8, sequence (Q86UL8 410-522): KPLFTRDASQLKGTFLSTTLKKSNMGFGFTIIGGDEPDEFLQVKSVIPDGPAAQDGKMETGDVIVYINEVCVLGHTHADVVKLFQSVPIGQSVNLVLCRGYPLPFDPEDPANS
MAGI2_6, Q86UL8, sequence (Q86UL8 1141-1229): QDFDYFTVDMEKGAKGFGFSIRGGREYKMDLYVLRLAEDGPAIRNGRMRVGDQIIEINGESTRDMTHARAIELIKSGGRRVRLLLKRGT
DLG2_2, Q15700, sequence (Q15700 189-283): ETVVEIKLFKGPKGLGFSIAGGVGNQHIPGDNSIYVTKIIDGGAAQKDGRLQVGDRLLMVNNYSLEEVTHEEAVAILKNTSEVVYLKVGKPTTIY

pKd [1]	pKd [2]	pKd [3]	pKd [4]	pKd [5]	pKd [6]	pKd [7]	pKd [8]	pKd [9]	pKd [10]	pKd [11]	pKd [12]	pKd [13]	pKd [14]	pKd [15]	pKd [16]	pKd [17]	pKd [18]	pKd [19]	pKd [20]	Binder	further results
below the threshold	below the threshold	below the threshold	3.69	below the threshold	3.76	4.85	4.27	below the threshold	below the threshold	below the threshold	below the threshold	3.54	4.7	4.16	4.67	3.87	below the threshold	3.66	3.53	IKLETKKTKL [SLC15A2, Q16348]	pKd [21]: below the threshold; pKd [22]: below the threshold; pKd [23]: below the threshold; pKd [24]: 3.47; pKd [25]: below the threshold; pKd [26]: below the threshold; pKd [27]: 3.61
below the threshold	below the threshold	below the threshold	below the threshold	below the threshold	below the threshold	below the threshold	3.63	below the threshold	below the threshold	below the threshold	below the threshold	below the threshold	below the threshold	4.01	below the threshold	3.5	below the threshold	below the threshold	below the threshold	DLLGGGSDSI [TNRC6B, Q9UPQ9]	pKd [21]: below the threshold; pKd [22]: below the threshold; pKd [23]: 3.97; pKd [24]: below the threshold; pKd [25]: 3.51; pKd [26]: below the threshold; pKd [27]: 3.9

Further lines, the binder ahead of its results:

Binder	pKd [1]	pKd [2]	pKd [3]	pKd [4]	pKd [5]	pKd [6]	pKd [7]	pKd [8]	pKd [9]	pKd [10]	pKd [11]	pKd [12]	pKd [13]	pKd [14]	pKd [15]	pKd [16]	pKd [17]	pKd [18]	pKd [19]	pKd [20]	further results
NSTHNLKDYV [CLDN20, P56880]	below the threshold	below the threshold	below the threshold	below the threshold	below the threshold	3.82	below the threshold	3.69	below the threshold	below the threshold	below the threshold	below the threshold	below the threshold	4.19	below the threshold	below the threshold	below the threshold	below the threshold	below the threshold	below the threshold	pKd [21]: 4.12; pKd [22]: below the threshold; pKd [23]: below the threshold; pKd [24]: below the threshold; pKd [25]: below the threshold; pKd [26]: below the threshold; pKd [27]: 3.58
PLATCDETSI [SEMA4F, O95754]	4.72	3.87	below the threshold	below the threshold	below the threshold	below the threshold	3.87	below the threshold	below the threshold	below the threshold	below the threshold	below the threshold	below the threshold	3.74	3.7	below the threshold	3.67	below the threshold	below the threshold	below the threshold	pKd [21]: 3.52; pKd [22]: below the threshold; pKd [23]: 4.08; pKd [24]: below the threshold; pKd [25]: below the threshold; pKd [26]: below the threshold; pKd [27]: below the threshold
GQNMTVSVVI [PRLHR, P49683]	3.77	below the threshold	below the threshold	below the threshold	3.81	3.8	below the threshold	3.64	4.28	below the threshold	below the threshold	below the threshold	below the threshold	below the threshold	4.21	4.02	below the threshold	below the threshold	below the threshold	3.97	pKd [21]: 5.11; pKd [22]: below the threshold; pKd [23]: 4.2; pKd [24]: below the threshold; pKd [25]: below the threshold; pKd [26]: below the threshold; pKd [27]: 3.82
GTMFLRETSL [GUCY1A2, P33402]	5.04	4.51	below the threshold	4.03	4.47	3.9	4.33	4.54	below the threshold	below the threshold	below the threshold	4.84	below the threshold	5.64	3.5	below the threshold	4.5	4.12	4.23	below the threshold	pKd [21]: below the threshold; pKd [22]: below the threshold; pKd [23]: 3.66; pKd [24]: 4.29; pKd [25]: below the threshold; pKd [26]: below the threshold; pKd [27]: 3.84

— publication PMC9482650, “Quantitative fragmentomics allow affinity mapping of interactomes” (Nature Communications, 2022)
